# Target: GABARAP(ΔG116)–NHNH methyl-fumarate 2 (UniProt O95166)
# Assay: cross-linking assay with probe 2, Coomassie SDS-PAGE gel densitometry
# Conditions: GABARAP probe 2 15 μM; ATG3 C1 alanine variants 15 μM; 30 min; parent: est. 1.0; read off a plot
# Sequence of GABARAP(ΔG116)–NHNH methyl-fumarate 2 (O95166 1-115, stated change not applied): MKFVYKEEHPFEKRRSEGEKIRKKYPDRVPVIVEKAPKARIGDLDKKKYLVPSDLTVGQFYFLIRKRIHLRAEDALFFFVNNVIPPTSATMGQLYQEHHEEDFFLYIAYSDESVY
# Sequence of ATG3 C1, Q9NT62 D92A (Q9NT62 whole entry D92A): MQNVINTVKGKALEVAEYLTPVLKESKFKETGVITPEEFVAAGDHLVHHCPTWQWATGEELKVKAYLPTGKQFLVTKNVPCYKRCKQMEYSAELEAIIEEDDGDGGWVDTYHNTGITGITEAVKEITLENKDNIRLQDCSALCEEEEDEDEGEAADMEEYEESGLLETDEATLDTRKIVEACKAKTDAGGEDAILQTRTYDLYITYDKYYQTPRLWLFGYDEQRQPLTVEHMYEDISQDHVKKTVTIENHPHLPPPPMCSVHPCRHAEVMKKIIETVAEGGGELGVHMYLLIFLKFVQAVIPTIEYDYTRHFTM
# Sequence of ATG3 C1, Q9NT62 I97A (Q9NT62 whole entry I97A): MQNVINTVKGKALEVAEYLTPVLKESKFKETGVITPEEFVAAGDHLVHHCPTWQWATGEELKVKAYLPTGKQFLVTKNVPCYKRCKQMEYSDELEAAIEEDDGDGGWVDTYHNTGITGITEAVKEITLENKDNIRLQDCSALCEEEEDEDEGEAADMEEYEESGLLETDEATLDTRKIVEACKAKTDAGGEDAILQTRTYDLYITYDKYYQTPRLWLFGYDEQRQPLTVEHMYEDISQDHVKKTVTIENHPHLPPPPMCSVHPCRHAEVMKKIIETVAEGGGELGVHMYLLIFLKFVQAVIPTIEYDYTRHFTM
# Sequence of ATG3 C1, Q9NT62 Y111A (Q9NT62 whole entry Y111A): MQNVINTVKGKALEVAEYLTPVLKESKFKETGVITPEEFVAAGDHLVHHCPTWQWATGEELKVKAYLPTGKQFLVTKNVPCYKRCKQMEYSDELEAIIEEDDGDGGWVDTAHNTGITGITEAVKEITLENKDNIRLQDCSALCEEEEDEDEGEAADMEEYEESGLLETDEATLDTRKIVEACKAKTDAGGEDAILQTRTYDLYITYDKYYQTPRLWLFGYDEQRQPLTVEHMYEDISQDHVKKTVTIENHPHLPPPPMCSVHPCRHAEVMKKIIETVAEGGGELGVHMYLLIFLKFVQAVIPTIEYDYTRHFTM
# Sequence of ATG3 C1, Q9NT62 E99A (Q9NT62 whole entry E99A): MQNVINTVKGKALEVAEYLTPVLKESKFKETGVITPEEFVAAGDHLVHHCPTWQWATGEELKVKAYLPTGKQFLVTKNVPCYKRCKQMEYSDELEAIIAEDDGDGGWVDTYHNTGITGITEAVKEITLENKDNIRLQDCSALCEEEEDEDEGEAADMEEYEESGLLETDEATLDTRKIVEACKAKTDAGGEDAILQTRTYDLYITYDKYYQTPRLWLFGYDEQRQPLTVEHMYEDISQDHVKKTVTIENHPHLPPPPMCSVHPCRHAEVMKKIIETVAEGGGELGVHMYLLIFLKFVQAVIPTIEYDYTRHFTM
# Sequence of ATG3 C1, Q9NT62 D104A (Q9NT62 whole entry D104A): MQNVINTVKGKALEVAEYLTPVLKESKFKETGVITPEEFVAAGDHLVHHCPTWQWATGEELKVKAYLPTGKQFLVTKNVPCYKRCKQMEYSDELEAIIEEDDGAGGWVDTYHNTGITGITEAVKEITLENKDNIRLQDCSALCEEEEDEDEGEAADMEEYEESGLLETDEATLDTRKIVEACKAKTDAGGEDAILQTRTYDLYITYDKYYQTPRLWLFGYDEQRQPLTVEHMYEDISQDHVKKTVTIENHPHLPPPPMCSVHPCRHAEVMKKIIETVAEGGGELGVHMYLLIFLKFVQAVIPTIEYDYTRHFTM
# Sequence of ATG3 C1, Q9NT62 V108A (Q9NT62 other isoform, or with tags, fused parts or gaps V108A): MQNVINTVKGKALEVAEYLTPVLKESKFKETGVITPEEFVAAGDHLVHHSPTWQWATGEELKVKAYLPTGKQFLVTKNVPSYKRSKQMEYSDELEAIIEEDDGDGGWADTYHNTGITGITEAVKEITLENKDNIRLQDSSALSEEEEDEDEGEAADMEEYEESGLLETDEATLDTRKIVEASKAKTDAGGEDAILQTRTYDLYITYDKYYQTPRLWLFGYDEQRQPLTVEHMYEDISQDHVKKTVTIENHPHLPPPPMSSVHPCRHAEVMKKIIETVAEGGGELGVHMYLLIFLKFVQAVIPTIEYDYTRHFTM
# Sequence of ATG3 C1, Q9NT62 D102A (Q9NT62 whole entry D102A): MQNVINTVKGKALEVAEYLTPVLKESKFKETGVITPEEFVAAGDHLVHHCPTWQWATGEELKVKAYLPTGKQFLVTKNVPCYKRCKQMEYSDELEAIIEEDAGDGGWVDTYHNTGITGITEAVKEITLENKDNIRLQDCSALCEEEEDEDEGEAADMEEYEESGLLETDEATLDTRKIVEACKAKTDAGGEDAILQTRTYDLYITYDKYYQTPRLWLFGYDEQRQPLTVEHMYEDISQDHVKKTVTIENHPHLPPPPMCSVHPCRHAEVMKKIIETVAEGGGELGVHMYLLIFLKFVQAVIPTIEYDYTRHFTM
# Sequence of ATG3 C1, Q9NT62 D109A (Q9NT62 other isoform, or with tags, fused parts or gaps D109A): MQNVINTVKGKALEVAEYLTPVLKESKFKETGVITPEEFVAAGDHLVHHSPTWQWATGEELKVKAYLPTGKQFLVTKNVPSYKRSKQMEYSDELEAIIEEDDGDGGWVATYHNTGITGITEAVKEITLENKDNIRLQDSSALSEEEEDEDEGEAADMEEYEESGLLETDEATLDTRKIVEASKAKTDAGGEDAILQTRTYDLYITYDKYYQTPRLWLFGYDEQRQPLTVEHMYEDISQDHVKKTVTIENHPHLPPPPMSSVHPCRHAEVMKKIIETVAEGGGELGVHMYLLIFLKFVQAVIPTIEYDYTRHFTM
# Sequence of ATG3 C1, Q9NT62 E95A (Q9NT62 whole entry E95A): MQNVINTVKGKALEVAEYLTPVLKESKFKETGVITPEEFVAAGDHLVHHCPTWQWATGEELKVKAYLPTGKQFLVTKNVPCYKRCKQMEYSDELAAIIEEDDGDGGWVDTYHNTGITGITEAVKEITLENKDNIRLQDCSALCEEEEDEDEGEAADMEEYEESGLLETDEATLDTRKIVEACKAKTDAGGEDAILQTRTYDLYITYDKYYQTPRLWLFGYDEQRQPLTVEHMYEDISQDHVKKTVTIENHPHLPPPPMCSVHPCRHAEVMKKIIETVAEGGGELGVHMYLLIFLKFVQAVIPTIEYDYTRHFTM
# Sequence of ATG3 C1, Q9NT62 Y90A (Q9NT62 whole entry Y90A): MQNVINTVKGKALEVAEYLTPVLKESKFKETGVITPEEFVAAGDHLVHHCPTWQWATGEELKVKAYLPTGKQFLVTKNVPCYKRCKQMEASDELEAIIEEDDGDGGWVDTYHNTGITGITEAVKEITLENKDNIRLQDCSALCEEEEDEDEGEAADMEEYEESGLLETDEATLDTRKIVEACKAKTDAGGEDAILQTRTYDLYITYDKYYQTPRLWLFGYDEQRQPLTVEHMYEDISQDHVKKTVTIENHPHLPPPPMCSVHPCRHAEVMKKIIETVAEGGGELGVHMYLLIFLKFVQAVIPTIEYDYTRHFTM
# Sequence of ATG3 C1, Q9NT62 W107A (Q9NT62 whole entry W107A): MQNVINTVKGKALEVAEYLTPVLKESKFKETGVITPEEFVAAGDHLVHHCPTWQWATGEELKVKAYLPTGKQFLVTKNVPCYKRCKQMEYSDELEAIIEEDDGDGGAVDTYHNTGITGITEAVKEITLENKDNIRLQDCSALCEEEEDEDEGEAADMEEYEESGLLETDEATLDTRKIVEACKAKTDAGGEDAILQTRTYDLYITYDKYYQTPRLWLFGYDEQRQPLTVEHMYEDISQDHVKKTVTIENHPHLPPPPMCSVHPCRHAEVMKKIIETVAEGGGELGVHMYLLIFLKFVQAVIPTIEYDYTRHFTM
# Sequence of ATG3 C1, Q9NT62 I98A (Q9NT62 whole entry I98A): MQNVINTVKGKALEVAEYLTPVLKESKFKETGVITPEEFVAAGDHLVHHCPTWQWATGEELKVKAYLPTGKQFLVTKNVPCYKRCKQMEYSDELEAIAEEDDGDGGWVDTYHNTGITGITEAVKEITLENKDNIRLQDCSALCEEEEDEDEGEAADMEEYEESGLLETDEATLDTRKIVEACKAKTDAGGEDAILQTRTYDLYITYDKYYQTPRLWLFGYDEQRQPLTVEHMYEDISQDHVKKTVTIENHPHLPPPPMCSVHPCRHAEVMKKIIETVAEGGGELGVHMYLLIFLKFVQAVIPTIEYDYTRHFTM
# Sequence of ATG3 C1, Q9NT62 T110A (Q9NT62 other isoform, or with tags, fused parts or gaps T110A): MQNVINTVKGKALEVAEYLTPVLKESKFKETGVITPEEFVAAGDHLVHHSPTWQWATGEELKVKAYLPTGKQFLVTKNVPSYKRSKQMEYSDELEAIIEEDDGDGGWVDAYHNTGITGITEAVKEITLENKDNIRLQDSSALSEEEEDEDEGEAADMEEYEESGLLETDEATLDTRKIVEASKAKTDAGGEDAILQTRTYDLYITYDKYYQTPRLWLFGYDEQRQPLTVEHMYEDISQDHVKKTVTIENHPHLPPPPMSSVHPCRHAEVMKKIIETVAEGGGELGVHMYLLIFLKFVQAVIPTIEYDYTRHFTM
row,Substance,ratio to parent
1,"ATG3 C1, Q9NT62 T110A",0.8
2,"ATG3 C1, Q9NT62 Y111A",0.69
3,"ATG3 C1, Q9NT62 W107A",0.17
4,"ATG3 C1, Q9NT62 D92A",1
5,"ATG3 C1, Q9NT62 I98A",0.74
6,"ATG3 C1, Q9NT62 E99A",0.52
7,"ATG3 C1, Q9NT62 Y90A",0.61
8,"ATG3 C1, Q9NT62 D104A",0.55
9,"ATG3 C1, Q9NT62 V108A",0.38
10,"ATG3 C1, Q9NT62 E95A",0.35
11,"ATG3 C1, Q9NT62 I97A",0.31
12,"ATG3 C1, Q9NT62 D102A",0.38
13,"ATG3 C1, Q9NT62 D109A",1.4

# Source: article PMC10214526, “Semisynthetic LC3 Probes for Autophagy Pathways Reveal a Noncanonical LC3 Interacting Region Motif Crucial for the Enzymatic Activity of Human ATG3” (ACS Central Science, 2023)
